Assay results reported in US7521432B2, “Compositions and methods for identifying agents which regulate chromosomal stability, gene activation and aging” (priority 2000, dated 2009).
Where “and” joins values, the source holds several entries; their conditions need not be identical. Identical values can stand only once.

Key:
[1] = tested on: Asterina miniata blastomere of two cell stage embryo; assay: Microinjection into one blastomere of two-cell stage embryo, early embryonic cell division; format: cell-based
Method: (§1) Asterina miniata gametes were collected and microinjections were performed as described previously (Carroll et al., 1999). Briefly, quantitative microinjection of Asterina miniata oocytes was performed at 16° C., using mercury-filled micropipets (Hiramoto, 1962; Kiehart, 1982; and see the information available at http://egg/uchc.edu/injection), allowing injection of precisely calibrated picoliter volumes into the oocytes and blastomeres. Injection volumes were 3% of the total cellular volume (for oocytes, 93 pL and for blastomeres, 47 pL). Buffer alone, purified O-acetylated ADP ribose or recombinant protein was injected into immature oocytes or one blastomere of a two cell stage embryo to a final concentration in the cytoplasm as indicated in the figure legends and Tables. 1-methyl adenine was from Sigma and was used at 10 μM.
To examine whether these SIR2 enzymes caused any phenotypic effects on early embryonic cell division, HST2 or the R45A mutant were micro-injected into one cell of the two-cell stage embryos. Asterina miniata oocytes were matured by addition of the hormone 1-methyladenine and then fertilized. One cell zygotes were then placed in injection chambers. After the first cell division, one daughter blastomere was microinjected with the indicated enzyme (see table and figure below). Embryos were monitored for further cell divisions over time. The non-injected daughter blastomere served as the internal control in each experiment. […] Again, there was a clear dosage effect that paralleled the effect observed on oocyte maturation.
Asterina miniata oocytes were matured by addition of the hormone 1-methyladenine and then fertilized. One cell zygotes were then placed in injection chambers. After the first cell division, one daughter blastomere was microinjected with the indicated enzyme. Embryos were monitored for further cell divisions over time. The non-injected daughter blastomere served as the internal control in each experiment. The number of injected embryos per treatment is given (n). Data are from two separate batches of oocytes.

[2] = tested on: Asterina miniata immature oocytes; assay: Microinjection into immature starfish oocytes, oocyte maturation (GVBD, polar body extrusion); format: cell-based; settings: for maturation and fertilization of injected egg: 10 μM 1-MA
Method: as §1
Micro-injection assays were performed in starfish and sea urchin ooctyes. Historically echinoderm development has been a biochemically tractable and well-defined system to assess biological function of pruteins, bio-active compounds and for detailed analyses of the cell cycle. This system is attractive for its amenability to quantitative microinjection assays, cell cycle analyses, biochemical fractionation and microscopic imaging of eggs and early embryos. Initially, we hypothesized that if O-acetyl-ADP ribose produced by SIR2 was involved in SIR2's gene silencing ability, then micro-injection of O-acetyl-ADP ribose into a maturing oocyte should give rise to a phenotypic effect on the developing animal, perhaps through perturbations in normal gene expression patterns. Immature oocytes were micro-injected with HPLC-purified O-acetyl-ADP ribose or with a buffer control. The oocytes were allowed to mature by the addition of 1-methyladenine and assessed for developmental alterations.
Asterina miniata immature oocytes were microinjected with the amounts of O-acetyl ADP ribose in PBS. The maturation hormone 1-methyladenine was added (10 μM) 25-30 minutes post-injection. Oocytes were monitored for GVBD and polar body extrusion. […] The number of oocytes per treatment is given. Combined results of 3 separate experiments (3 batches of O-acetyl ADP ribose).
Asterina miniata immature oocytes were microinjected with the given enzymes in PBS. The maturation hormone 1-methyladenine was added (10 μM) 25-30 minutes post-injection. Oocytes were monitored for GVBD and polar body extrusion. […] The number of oocytes per treatment (n) is given. Data are from four separate batches of oocytes. All oocytes for a given treatment responded in the same way unless indicated otherwise (e.g. see 200 nM HST2 injection).

[3] = biological target: acetyl-peptide (Saccharomyces cerevisiae, UniProt P53686, R45A); assay: Catalytic efficiency of R45A mutant compared to wild type HST2; format: biochemical; settings: unpublished data
acetyl-peptide, sequence (P53686 whole entry R45A): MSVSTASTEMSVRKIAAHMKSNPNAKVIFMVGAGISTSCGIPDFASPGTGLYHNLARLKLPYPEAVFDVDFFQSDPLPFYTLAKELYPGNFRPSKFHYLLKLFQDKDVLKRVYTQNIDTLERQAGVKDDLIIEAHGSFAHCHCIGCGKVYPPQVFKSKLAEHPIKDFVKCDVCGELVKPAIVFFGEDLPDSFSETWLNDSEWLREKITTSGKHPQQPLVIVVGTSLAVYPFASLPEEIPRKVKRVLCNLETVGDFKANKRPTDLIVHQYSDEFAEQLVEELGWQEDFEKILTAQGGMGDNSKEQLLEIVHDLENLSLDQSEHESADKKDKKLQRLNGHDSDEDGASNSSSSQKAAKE
Text: To complement these studies, we micro-injected active yeast HST2 and human SIR2 enzymes instead of O-acetyl-ADP ribose. We hypothesized that if acetylated protein substrates were available in the oocyte, then micro-injected enzyme would provide a more constant source of O-acetyl-ADP ribose. As a control, a catalytically impaired mutant of HST2 (R45A) was employed to ensure that any effects were due to the catalytic activity of the enzyme. The R45A mutant is >50-fold lower in catalytic efficiency (kcat and kcat/Km for acetyl-peptide) compared to wild type enzyme (unpublished data).

[4] = final conc 200 nM in blastomere

Molecule | Effects: 3rd cell division ([1]; final conc 25 nM in blastomere) | Effects: Next cell division ([1]; final conc 25 nM in blastomere) | Effects: other ([1]; final conc 25 nM in blastomere) | Effects: 3rd cell division ([1]; final conc 72 nM in blastomere) | Effects: Next cell division ([1]; final conc 72 nM in blastomere) | Effects: 3rd cell division [1, 4] | Effects: Next cell division [1, 4] | effect on oocyte maturation ([2]; above 72 nM) | Effects/Notes (oocyte maturation) ([2]; final conc 25 nM) | Effects/Notes (oocyte maturation) ([2]; final conc 60 nM) | Effects/Notes (oocyte maturation) ([2]; final conc 72 nM) | Effects/Notes (oocyte maturation) ([2]; final conc 200 nM) | further results
HST2: yeast SIR2 homolog, recombinant histidine tagged full length NAD-dependent deacetylase (protein, UniProt P53686 2-357, looked up) NAD-dependent protein …: SVSTASTEMSVRKIAAHMKSNPNAKVIFMVGAGISTSCGIPDFRSPGTGLYHNLARLKLPYPEAVFDVDFFQSDPLPFYTLAKELYPGNFRPSKFHYLLKLFQDKDVLKRVYTQNIDTLERQAGVKDDLIIEAHGSFAHCHCIGCGKVYPPQVFKSKLAEHPIKDFVKCDVCGELVKPAIVFFGEDLPDSFSETWLNDSEWLREKITTSGKHPQQPLVIVVGTSLAVYPFASLPEEIPRKVKRVLCNLETVGDFKANKRPTDLIVHQYSDEFAEQLVEELGWQEDFEKILTAQGGMGDNSKEQLLEIVHDLENLSLDQSEHESADKKDKKLQRLNGHDSDEDGASNSSSSQKAAKE | Normal | 4/5 normal and 1/5 as slight | Normal | Complete | 4/10 slight and 6/10 no | Complete | 2/7 slight and 5/7 no | complete block in maturation | no effect was observed | 2 hr delay in GVBD and polar body extrusion | complete block | complete block in 9/10; 3 hr delay 1/10 | development of injected cells ([1]; 25 nM, most cells): developed normally; division of injected blastomere ([1]; 200 nM, injected after complete cytokinesis, FIG. 10C): divided once, then both daughters stopped; effect on cell division of injected blastomere ([1]; at and above 72 nM): complete block in cell division either at the next or subsequent division; maturation and fertilization of injected egg ([2]; 200 nM final, fertilized 4 hours later, FIG. 10A): failed to mature; injected eggs in chamber behaving the same way (failed to mature) ([2]; 200 nM final, FIG. 10A): 10 of 10
HST2 R45A: catalytically impaired mutant of HST2 (R45A) (protein, UniProt P53686 2-357, looked up, variant R45A) NAD-dependent protein …: SVSTASTEMSVRKIAAHMKSNPNAKVIFMVGAGISTSCGIPDFASPGTGLYHNLARLKLPYPEAVFDVDFFQSDPLPFYTLAKELYPGNFRPSKFHYLLKLFQDKDVLKRVYTQNIDTLERQAGVKDDLIIEAHGSFAHCHCIGCGKVYPPQVFKSKLAEHPIKDFVKCDVCGELVKPAIVFFGEDLPDSFSETWLNDSEWLREKITTSGKHPQQPLVIVVGTSLAVYPFASLPEEIPRKVKRVLCNLETVGDFKANKRPTDLIVHQYSDEFAEQLVEELGWQEDFEKILTAQGGMGDNSKEQLLEIVHDLENLSLDQSEHESADKKDKKLQRLNGHDSDEDGASNSSSSQKAAKE | Normal | Normal | Normal | Normal | Normal | Normal | normal |  | no observed effect | no observed effect | no observed effect | no observed effect | lower in catalytic efficiency (kcat and kcat/Km for acetyl-peptide) compared to wild type enzyme [3]: > 50 fold; phenotype of injected blastomere ([1]; any concentration): no phenotype; Effects: other ([1]; final conc 72 nM in blastomere): Normal; Effects: other [1, 4]: Normal; maturation and fertilization of injected egg ([2]; fertilized four hours later, FIG. 10B): matured and were fertilized normally; injected eggs in chamber behaving the same way (matured, fertilized normally) ([2]; FIG. 10B): 7 of 7; effect on oocyte maturation ([2]; any concentration from 25-200 nM): no observed effects
hSIRT2: human SIR2 enzyme (protein, UniProt Q8IXJ6 2-389, looked up) NAD-dependent protein …: AEPDPSHPLETQAGKVQEAQDSDSDSEGGAAGGEADMDFLRNLFSQTLSLGSQKERLLDELTLEGVARYMQSERCRRVICLVGAGISTSAGIPDFRSPSTGLYDNLEKYHLPYPEAIFEISYFKKHPEPFFALAKELYPGQFKPTICHYFMRLLKDKGLLLRCYTQNIDTLERIAGLEQEDLVEAHGTFYTSHCVSASCRHEYPLSWMKEKIFSEVTPKCEDCQSLVKPDIVFFGESLPARFFSCMQSDFLKVDLLLVMGTSLQVQPFASLISKAPLSTPRLLINKEKAGQSDPFLGMIMGLGGGMDFDSKKAYRDVAWLGECDQGCLALAELLGWKKELEDLVRREHASIDAQSGAGVPNPSTSASPKKSPPPAKDEARTTEREKPQ |  |  |  |  |  |  |  | complete block in maturation | no effect was observed | 2 hr delay in GVBD and polar body extrusion and polar |  | complete block | 
